Assay results published in PMC5356841 (Oncotarget, 2016).
Blank lines part the entries; values can stand above or below the binder they belong to.

Experiments:
[1] = biological target: T1, individual catalytic domain of human MT1-MMP (MT1-CAT) (human, UniProt P50281, biotin (EZ-Link sulfo-NHS-LC-biotin, 1:20 enzyme-biotin molar ratio) in the Fab binding ELISA only; unlabelled in the competition ELISA and the cleavage assays); assay: cell-based or functional assay
[2] = biological target: T1, individual catalytic domain of human …; assay: ELISA; biotin-labelled MT1-CAT (25 nM) captured on streptavidin-coated wells; Fab 0-8,000 nM in TBS/T-0.5% gelatin, 1 h, ambient temperature; detected with HRP-conjugated goat anti-human Fab; Kd = Fab concentration that bound 50% of MT1-MMP; conditions: both partners purified

IC50 of inhibition of MT1-CAT (5 nM) cleavage of the Mca-PLGL-Dpa-AR-NH2 peptide (1 uM); Fab 0-5,000 nM [1]: > 5000 nM
B1: 3E9 Fab (Fab, V domains shown)
VH: EVQLVESGGGLVQPGGSLRLSCAASGFNLYYSSMHWVRQAPGKGLEWVASIYPSYGSTYYADSVKGRFTISADTSKNTAYLQMNSLRAEDTAVYYCARNGRYPGFLKRAHKRLLNFKAYVMDYWGQGTLVTVSS
VL: DIQMTQSPSSLSASVGDRVTITCRASQSVSSAVAWYQQKPGKAPKLLIYSASSLYSGVPSRFSGSRSGTDFTLTISSLQPEDFATYYCQQGSWYLITFGQGTKVEIK

binding result [2]: binds
B2: 2B5 Fab (Fab, V domains shown)
VH: EVQLVESGGGLVQPGGSLRLSCAASGFNLSYSSMHWVRQAPGKGLEWVASIYPYSGYTYYADSVKGRFTISADTSKNTAYLQMNSLRAEDTAVYYCARIGVNAWAVKMSQRMLATRGSGWYVMDYWGQGTLVTVSS
VL: DIQMTQSPSSLSASVGDRVTITCRASQSVSSAVAWYQQKPGKAPKLLIYSASSLYSGVPSRFSGSRSGTDFTLTISSLQPEDFATYYCQQSSSYPYSPITFGQGTKVEIK
notes: VH CDR-H3; Only CDR-H3 is printed; Same synthetic human Fab library as 3A2 (accompanying manuscript, submitted); source: E. coli, purified from cell lysates (purity >95%)

Kd [2]: 8 nM | IC50 of inhibition of MT1-CAT (5 nM) cleavage of the Mca-PLGL-Dpa-AR-NH2 peptide (1 uM); Fab 0-5,000 nM [1]: 18 nM
B3: 3A2 Fab (Fab, V domains shown)
VH: EVQLVESGGGLVQPGGSLRLSCAASGFNLSSSSMHWVRQAPGKGLEWVASIYPSYSYTYYADSVKGRFTISADTSKNTAYLQMNSLRAEDTAVYYCARVKLQKDKSHQWIRNLVATPYGRYVMDYWGQGTLVTVSS
VL: DIQMTQSPSSLSASVGDRVTITCRASQSVSSAVAWYQQKPGKAPKLLIYSASSLYSGVPSRFSGSRSGTDFTLTISSLQPEDFATYYCQQYGYPITFGQGTKVEIK
notes: numbers count on the anti-TDRD3 Fab; From a synthetic human Fab library with 23-27 residue long CDR-H3; selection is described in an accompanying manuscript (submitted); also called 3A2 antibody; 3A2 Fab antibody; source: E. coli, purified from cell lysates (purity >95%)

Kd [2]: 2 nM | IC50 of inhibition of MT1-CAT (5 nM) cleavage of the Mca-PLGL-Dpa-AR-NH2 peptide (1 uM); Fab 0-5,000 nM [1]: 8.5 nM
B4: DX2400 Fab (Fab, V domains shown)
VH: EVQLLESGGGLVQPGGSLRLSCAASGFTFSLYSMNWVRQAPGKGLEWVSSIYSSGGSTLYADSVKGRFTISRDNSKNTLYLQMNSLRAEDTAVYYCARGRAFDIWGQGTMVTVSS
VL: DIQMTQSPSSLSASVGDRVTITCRASQSVGTYLNWYQQKPGKAPKLLIYATSNLRSGVPSRFSGSGSGTDFTLTISSLQPEDFATYYCQQSYSIPRFTFGPGTKVDIK
notes: VH CDR-H3; Only CDR-H3 is printed; also called DX2400 Fab fragment; source: cloning, expression and isolation reported earlier [66]
